Each block holds one binder with its values, some of them ahead of it.
Columns and labels:
[1] = target: T1, TBK1 (endogenous, HeLa cells) (human (HeLa cells), UniProt Q9UHD2 1-729); assay: anti-Act1 immunoprecipitation from untreated and IL-17-treated HeLa cells (FIG. 4D)
T1 sequence (looked up): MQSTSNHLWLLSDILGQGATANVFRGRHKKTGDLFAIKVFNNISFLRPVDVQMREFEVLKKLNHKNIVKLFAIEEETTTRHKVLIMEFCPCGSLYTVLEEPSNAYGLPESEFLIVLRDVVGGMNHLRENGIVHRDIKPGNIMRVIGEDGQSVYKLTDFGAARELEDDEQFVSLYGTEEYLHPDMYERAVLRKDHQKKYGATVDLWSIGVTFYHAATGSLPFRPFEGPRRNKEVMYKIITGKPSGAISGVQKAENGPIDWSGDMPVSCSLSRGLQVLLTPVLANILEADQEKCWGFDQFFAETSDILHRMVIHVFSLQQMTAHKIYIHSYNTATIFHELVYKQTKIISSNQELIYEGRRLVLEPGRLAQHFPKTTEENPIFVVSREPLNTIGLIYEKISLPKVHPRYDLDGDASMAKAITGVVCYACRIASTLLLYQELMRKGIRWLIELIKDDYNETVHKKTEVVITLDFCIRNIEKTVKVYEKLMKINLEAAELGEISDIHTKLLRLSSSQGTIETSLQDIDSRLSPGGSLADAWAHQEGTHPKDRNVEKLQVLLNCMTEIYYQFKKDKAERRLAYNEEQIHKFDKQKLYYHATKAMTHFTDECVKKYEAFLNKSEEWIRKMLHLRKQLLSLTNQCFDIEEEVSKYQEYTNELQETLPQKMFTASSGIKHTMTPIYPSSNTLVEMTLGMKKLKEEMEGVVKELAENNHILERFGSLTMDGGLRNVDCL
Description: (§1) Immunoblot, immunoprecipitation and nuclear fractionation: Cell were harvested and lysed on ice in a lysis buffer containing 0.5% Triton X-100, 20 mM Hepes pH 7.4, 150 mM NaCl, 12.5 mM-glycerophosphate, 1.5 mM MgCl2, 10 mM NaF, 2 mM dithiothreitol, 1 mM sodium orthovanadate, 2 mM EGTA, […], and 1 mM phenylmethylsulfonyl fluoride for 20 minutes, followed by centrifuging at 12,000 rpm for 15 minutes to extract clear lysates. For immunoprecipitation, cell lysates were incubated with 1 μg of antibody and A-sepharose beads at 4 degree overnight. After incubation, the beads were washed four times with lysis buffer and the precipitates were eluted with 2× sample buffer. Elutes and whole cell extracts were resolved on SDS-PAGE followed by immunobloting with antibodies. Nuclear fractionation was performed using NUCLEI EZ PREP kit purchased from Sigma in accordance with the manufacturer's instruction. Nuclear pellets were suspended in 30p1 of nuclear extraction buffer (20 mM HEPES, 400 mM NaCl, 1 mM EDTA, 1 mM EGTA in water, pH 7.9) containing freshly prepared 1 mM DTT and protease inhibitor cocktail. After 1.5 h incubation on ice bath with intermittent vortexing, extracts were centrifuged and supernatant was collected for immunoprecipitation.

[2] = target: T2, IKKi (endogenous, HeLa cells) (human (HeLa cells), UniProt Q14164 1-716); assay: as above
T2 sequence (looked up): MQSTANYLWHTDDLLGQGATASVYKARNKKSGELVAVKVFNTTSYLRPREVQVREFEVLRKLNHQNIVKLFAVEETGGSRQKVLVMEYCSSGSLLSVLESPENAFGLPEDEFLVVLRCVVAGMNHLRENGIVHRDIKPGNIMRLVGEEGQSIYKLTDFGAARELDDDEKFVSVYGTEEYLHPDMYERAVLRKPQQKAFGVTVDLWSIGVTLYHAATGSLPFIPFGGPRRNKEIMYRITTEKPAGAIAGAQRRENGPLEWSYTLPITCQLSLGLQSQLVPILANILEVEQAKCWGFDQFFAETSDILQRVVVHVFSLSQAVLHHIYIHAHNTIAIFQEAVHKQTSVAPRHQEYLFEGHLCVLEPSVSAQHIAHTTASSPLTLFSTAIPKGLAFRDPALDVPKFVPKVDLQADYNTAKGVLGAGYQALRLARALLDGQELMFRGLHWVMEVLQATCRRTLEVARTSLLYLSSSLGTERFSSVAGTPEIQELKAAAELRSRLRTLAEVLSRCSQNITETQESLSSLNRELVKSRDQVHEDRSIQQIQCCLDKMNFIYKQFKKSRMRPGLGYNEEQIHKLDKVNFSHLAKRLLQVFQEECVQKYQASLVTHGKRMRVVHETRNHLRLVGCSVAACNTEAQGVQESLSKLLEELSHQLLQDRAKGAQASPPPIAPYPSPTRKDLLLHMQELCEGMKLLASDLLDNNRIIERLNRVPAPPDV
Description: as §1

[3] = target: T3, Dcp1 (endogenous, HeLa cells) (human (HeLa cells), UniProt Q9NPI6 1-582); assay: in situ proximity ligation assay with anti-Act1 and anti-Dcp1, endogenous proteins in HeLa cells, untreated or IL-17
T3 construct: its constructs and phospho-antibody are Dcp1a; also called Dcp1 decapping enzyme; Dcp1a
T3 sequence (looked up): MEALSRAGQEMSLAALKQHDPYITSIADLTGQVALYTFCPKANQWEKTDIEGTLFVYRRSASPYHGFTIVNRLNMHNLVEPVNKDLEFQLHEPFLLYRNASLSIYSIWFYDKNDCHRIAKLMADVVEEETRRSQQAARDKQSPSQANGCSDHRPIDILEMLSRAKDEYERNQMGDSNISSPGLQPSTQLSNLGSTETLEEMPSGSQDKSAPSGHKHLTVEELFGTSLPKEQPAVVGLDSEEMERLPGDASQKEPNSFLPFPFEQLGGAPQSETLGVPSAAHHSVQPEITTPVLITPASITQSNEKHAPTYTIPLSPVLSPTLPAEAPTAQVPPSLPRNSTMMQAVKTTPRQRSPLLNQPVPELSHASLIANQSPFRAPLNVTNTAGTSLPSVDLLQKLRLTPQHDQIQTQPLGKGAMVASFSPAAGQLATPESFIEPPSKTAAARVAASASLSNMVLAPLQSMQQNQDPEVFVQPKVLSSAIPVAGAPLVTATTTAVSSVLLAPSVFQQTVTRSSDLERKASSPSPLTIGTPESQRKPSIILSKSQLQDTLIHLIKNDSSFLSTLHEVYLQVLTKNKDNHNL

FLAG-hIRAK1 = target: T4, FLAG-hIRAK1 (human, UniProt P51617 1-712); assay: in situ proximity ligation assay (anti-Flag and anti-HA) in HeLa cells co-transfected with IRAK1-FLAG and Act1-HA (negative control)
T4 construct: Negative control of the PLA; also called IRAK1-Flag; not shown: FLAG tag

FLAG-hDcp1a = target: T5, FLAG-hDcp1a (human, UniProt Q9NPI6 1-582); assay: in situ proximity ligation assay (anti-Flag and anti-HA) in HeLa cells co-transfected with Dcp1-FLAG and Act1-HA
T5 construct: also called Dcp1-Flag; FLAG-tagged Dcp1; not shown: FLAG tag
T5 sequence (looked up): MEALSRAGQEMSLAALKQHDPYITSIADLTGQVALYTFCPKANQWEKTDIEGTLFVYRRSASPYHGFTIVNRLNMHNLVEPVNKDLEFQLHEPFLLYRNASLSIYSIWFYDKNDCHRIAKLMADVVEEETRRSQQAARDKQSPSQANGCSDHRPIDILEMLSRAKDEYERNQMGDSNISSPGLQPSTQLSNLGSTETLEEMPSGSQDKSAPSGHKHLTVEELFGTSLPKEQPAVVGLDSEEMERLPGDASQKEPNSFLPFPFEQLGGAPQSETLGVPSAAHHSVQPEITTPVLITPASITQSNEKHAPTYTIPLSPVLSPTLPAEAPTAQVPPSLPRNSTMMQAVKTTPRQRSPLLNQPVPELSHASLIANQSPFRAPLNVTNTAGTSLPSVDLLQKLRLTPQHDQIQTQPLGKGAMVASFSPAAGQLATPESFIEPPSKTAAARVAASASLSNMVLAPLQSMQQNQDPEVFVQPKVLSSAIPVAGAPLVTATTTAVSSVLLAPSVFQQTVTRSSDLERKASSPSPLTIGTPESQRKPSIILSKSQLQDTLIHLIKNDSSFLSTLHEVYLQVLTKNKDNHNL

FLAG-hDcp2 = target: T6, FLAG-hDcp2 (human, UniProt Q8IU60 1-420); assay: co-immunoprecipitation with anti-FLAG from transfected HeLa cells, HA blot
T6 construct: also called FLAG-tagged Dcp2; not shown: FLAG tag

T4 sequence (P51617 whole entry): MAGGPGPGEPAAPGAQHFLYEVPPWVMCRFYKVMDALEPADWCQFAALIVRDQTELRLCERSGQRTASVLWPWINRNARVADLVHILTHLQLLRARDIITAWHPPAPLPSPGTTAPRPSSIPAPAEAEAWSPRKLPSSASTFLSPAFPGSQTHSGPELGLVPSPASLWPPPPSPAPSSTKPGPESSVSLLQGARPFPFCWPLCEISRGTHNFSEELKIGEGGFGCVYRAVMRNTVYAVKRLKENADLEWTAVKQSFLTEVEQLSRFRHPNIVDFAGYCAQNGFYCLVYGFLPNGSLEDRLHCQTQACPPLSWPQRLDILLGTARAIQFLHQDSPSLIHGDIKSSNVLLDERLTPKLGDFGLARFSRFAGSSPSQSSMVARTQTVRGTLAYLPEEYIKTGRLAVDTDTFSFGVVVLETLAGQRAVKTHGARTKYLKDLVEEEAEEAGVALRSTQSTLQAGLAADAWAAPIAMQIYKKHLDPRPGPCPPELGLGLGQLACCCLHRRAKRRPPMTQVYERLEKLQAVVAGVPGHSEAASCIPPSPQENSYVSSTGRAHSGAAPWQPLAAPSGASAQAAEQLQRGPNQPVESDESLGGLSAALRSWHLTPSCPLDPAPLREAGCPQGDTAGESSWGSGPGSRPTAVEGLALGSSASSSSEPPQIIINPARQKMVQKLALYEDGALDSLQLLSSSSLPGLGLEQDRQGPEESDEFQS

binding result [1]: binds
binding result [2]: binds
binding result [3]: binds
B1: Act1 (endogenous, HeLa cells) (other, human (HeLa cells), UniProt O43734 1-574, looked up)
chain: MPPQLQETRMNRSIPVEVDESEPYPSQLLKPIPEYSPEEESEPPAPNIRNMAPNSLSAPTMLHNSSGDFSQAHSTLKLANHQRPVSRQVTCLRTQVLEDSEDSFCRRHPGLGKAFPSGCSAVSEPASESVVGALPAEHQFSFMEKRNQWLVSQLSAASPDTGHDSDKSDQSLPNASADSLGGSQEMVQRPQPHRNRAGLDLPTIDTGYDSQPQDVLGIRQLERPLPLTSVCYPQDLPRPLRSREFPQFEPQRYPACAQMLPPNLSPHAPWNYHYHCPGSPDHQVPYGHDYPRAAYQQVIQPALPGQPLPGASVRGLHPVQKVILNYPSPWDHEERPAQRDCSFPGLPRHQDQPHHQPPNRAGAPGESLECPAELRPQVPQPPSPAAVPRPPSNPPARGTLKTSNLPEELRKVFITYSMDTAMEVVKFVNFLLVNGFQTAIDIFEDRIRGIDIIKWMERYLRDKTVMIIVAISPKYKQDVEGAESQLDEDEHGLHTKYIHRMMQIEFIKQGSMNFRFIPVLFPNAKKEHVPTWLQNTHVYSWPKNKKNILLRLLREEEYVAPPRGPLPTLQVVPL
notes: Endogenous protein in cells or cell lysate; also called CIKS; endogenous Act1

binding result (FLAG-hIRAK1): no binding
binding result (FLAG-hDcp1a): binds
B2: HA-hAct1 (other, human, UniProt O43734 1-574, looked up)
chain: MPPQLQETRMNRSIPVEVDESEPYPSQLLKPIPEYSPEEESEPPAPNIRNMAPNSLSAPTMLHNSSGDFSQAHSTLKLANHQRPVSRQVTCLRTQVLEDSEDSFCRRHPGLGKAFPSGCSAVSEPASESVVGALPAEHQFSFMEKRNQWLVSQLSAASPDTGHDSDKSDQSLPNASADSLGGSQEMVQRPQPHRNRAGLDLPTIDTGYDSQPQDVLGIRQLERPLPLTSVCYPQDLPRPLRSREFPQFEPQRYPACAQMLPPNLSPHAPWNYHYHCPGSPDHQVPYGHDYPRAAYQQVIQPALPGQPLPGASVRGLHPVQKVILNYPSPWDHEERPAQRDCSFPGLPRHQDQPHHQPPNRAGAPGESLECPAELRPQVPQPPSPAAVPRPPSNPPARGTLKTSNLPEELRKVFITYSMDTAMEVVKFVNFLLVNGFQTAIDIFEDRIRGIDIIKWMERYLRDKTVMIIVAISPKYKQDVEGAESQLDEDEHGLHTKYIHRMMQIEFIKQGSMNFRFIPVLFPNAKKEHVPTWLQNTHVYSWPKNKKNILLRLLREEEYVAPPRGPLPTLQVVPL
notes: Printed as HA-hAct1 in the constructs and Act1-HA in the legends; also called Act1-HA; not shown: HA tag

binding result (FLAG-hDcp2): no binding
B3: HA-TBK1 (enzyme, not shown: small tags and cut ends)
chain: MQSTSNHLWLLSDILGQGATANVFRGRHKKTGDLFAIKVFNNISFLRPVDVQMREFEVLKKLNHKNIVKLFAIEEETTTRHKVLIMEFCPCGSLYTVLEEPSNAYGLPESEFLIVLRDVVGGMNHLRENGIVHRDIKPGNIMRVIGEDGQSVYKLTDFGAARELEDDEQFVSLYGTEEYLHPDMYERAVLRKDHQKKYGATVDLWSIGVTFYHAATGSLPFRPFEGPRRNKEVMYKIITGKPSGAISGVQKAENGPIDWSGDMPVSCSLSRGLQVLLTPVLANILEADQEKCWGFDQFFAETSDILHRMVIHVFSLQQMTAHKIYIHSYNTATIFHELVYKQTKIISSNQELIYEGRRLVLEPGRLAQHFPKTTEENPIFVVSREPLNTIGLIYEKISLPKVHPRYDLDGDASMAKAITGVVCYACRIASTLLLYQELMRKGIRWLIELIKDDYNETVHKKTEVVITLDFCIRNIEKTVKVYEKLMKINLEAAELGEISDIHTKLLRLSSSQGTIETSLQDIDSRLSPGGSLADAWAHQEGTHPKDRNVEKLQVLLNCMTEIYYQFKKDKAERRLAYNEEQIHKFDKQKLYYHATKAMTHFTDECVKKYEAFLNKSEEWIRKMLHLRKQLLSLTNQCFDIEEEVSKYQEYTNELQETLPQKMFTASSGIKHTMTPIYPSSNTLVEMTLGMKKLKEEMEGVVKELAENNHILERFGSLTMDGGLRNVDCL
notes: also called HA-tagged TBK1

— patent US20230009539A1 (CLEVELAND CLINIC FOUNDATION, published 2023)
